FireProtDB (doi:10.1021/bi0362267)

B1: Ribonuclease, P00648 (parent)
chain: MMKMEGIALKKRLSWISVCLLVLVSAAGMLFSTAAKTETSSHKAHTEAQVINTFDGVADYLQTYHKLPDNYITKSEAQALGWVASKGNLADVAPGKSIGGDIFSNREGKLPGKSGRTWREADINYTSGFRNSDRILYSSDWLIYKTTDHYQTFTKIR

Variants of: B1
Settings: Bacillus amyloliquefaciens, pH 6.3, Thermal, CD, Mes 50 mM, structure 1BNI, whole UniProt chain shown; for ddG of mutation (higher = less stable) / unfolding free energy: 25 °C

For MMKMEGIALKKRLSWISVCLLVLVSAAGMLFSTAAKTETSSHKAHTEAQVINTFDGVAAYLQTYHKLPDNYITKSEAQALGWVASKGNLADVAPGKSIGGDIFSNREGKLPGKSGRTWREADINYTSGFRNSDRILYSSDWLIYKTTDHYQTFTKIR [D59A], the “ddG of mutation (higher = less stable)” value was -1.1 kcal/mol, the unfolding free energy was 10.6 kcal/mol and the Tm was 51.2 °C. For the same variant, the “change of melting temperature, mutant - wild type (higher = more stable)” value (shortened to “change of melting temperature, mutant”) was -1 °C and the “unfolding enthalpy (van 't Hoff)” value was 153 kcal/mol.

In the case of MMKMEGIALKKRLSWISVCLLVLVSAAGMLFSTAAKTETSSHKAHTEAQVINTFDGVAGYLQTYHKLPDNYITKSEAQALGWVASKGNLADVAPGKSIGGDIFSNREGKLPGKSGRTWREADINYTSGFRNSDRILYSSDWLIYKTTDHYQTFTKIR [D59G], the “ddG of mutation (higher = less stable)” value is reported as 1.2 kcal/mol, the unfolding free energy is reported as 8.3 kcal/mol and the Tm is reported as 50 °C. The “change of melting temperature, mutant” value was -2.3 °C and the “unfolding enthalpy (van 't Hoff)” value was 129 kcal/mol.

In the case of MMKMEGIALKKRLSWISVCLLVLVSAAGMLFSTAAKTETSSHKAHTEAQVINTFDGVADGLQTYHKLPDNYITKSEAQALGWVASKGNLADVAPGKSIGGDIFSNREGKLPGKSGRTWREADINYTSGFRNSDRILYSSDWLIYKTTDHYQTFTKIR [Y60G], the “ddG of mutation (higher = less stable)” value is reported as 6.4 kcal/mol, the unfolding free energy is reported as 3.1 kcal/mol and the Tm is reported as 36.6 °C. The “change of melting temperature, mutant” value was -15.6 °C and the “unfolding enthalpy (van 't Hoff)” value was 92.7 kcal/mol.

For MMKMEGIALKKRLSWISVCLLVLVSAAGMLFSTAAKTETSSHKAHTEAQVINTFDGVADYLATYHKLPDNYITKSEAQALGWVASKGNLADVAPGKSIGGDIFSNREGKLPGKSGRTWREADINYTSGFRNSDRILYSSDWLIYKTTDHYQTFTKIR [Q62A], the “ddG of mutation (higher = less stable)” value was 0.2 kcal/mol, the unfolding free energy was 9.3 kcal/mol and the Tm was 51.4 °C. The “change of melting temperature, mutant” value was -0.9 °C and the “unfolding enthalpy (van 't Hoff)” value was 137 kcal/mol.

In the case of MMKMEGIALKKRLSWISVCLLVLVSAAGMLFSTAAKTETSSHKAHTEAQVINTFDGVADYLGTYHKLPDNYITKSEAQALGWVASKGNLADVAPGKSIGGDIFSNREGKLPGKSGRTWREADINYTSGFRNSDRILYSSDWLIYKTTDHYQTFTKIR [Q62G], the “ddG of mutation (higher = less stable)” value is reported as 1.6 kcal/mol, the unfolding free energy is reported as 7.9 kcal/mol and the Tm is reported as 50.2 °C. The “change of melting temperature, mutant” value was -2 °C and the “unfolding enthalpy (van 't Hoff)” value was 123 kcal/mol.

In the case of MMKMEGIALKKRLSWISVCLLVLVSAAGMLFSTAAKTETSSHKAHTEAQVINTFDGVADYLQTYHKLPDNYITKSEAQALGWVASKGNLADVAPGKSIGGDGFSNREGKLPGKSGRTWREADINYTSGFRNSDRILYSSDWLIYKTTDHYQTFTKIR [I102G], the “ddG of mutation (higher = less stable)” value is reported as 3.1 kcal/mol and the unfolding free energy is reported as 6.4 kcal/mol.

For MMKMEGIALKKRLSWISVCLLVLVSAAGMLFSTAAKTETSSHKAHTEAQVINTFDGVADYLQTYHKLPDNYITKSEAQALGWVASKGNLADVAPGKSIGGDIFSNREGKLPGKSGRTWGEADINYTSGFRNSDRILYSSDWLIYKTTDHYQTFTKIR [R119G], the “ddG of mutation (higher = less stable)” value was 2.5 kcal/mol, the unfolding free energy was 7 kcal/mol and the Tm was 46.5 °C. For the same variant, the “change of melting temperature, mutant” value was -5.7 °C and the “unfolding enthalpy (van 't Hoff)” value was 123 kcal/mol.

In the case of MMKMEGIALKKRLSWISVCLLVLVSAAGMLFSTAAKTETSSHKAHTEAQVINTFDGVADYLQTYHKLPDNYITKSEAQALGWVASKGNLADVAPGKSIGGDIFSNREGKLPGKSGRTWREADINYTSGFRNSDRGLYSSDWLIYKTTDHYQTFTKIR [I135G], the “ddG of mutation (higher = less stable)” value is reported as 7.4 kcal/mol, the unfolding free energy is reported as 2.1 kcal/mol and the Tm is reported as 31.4 °C. For the same variant, the “change of melting temperature, mutant” value was -20.8 °C and the “unfolding enthalpy (van 't Hoff)” value was 100 kcal/mol.

For MMKMEGIALKKRLSWISVCLLVLVSAAGMLFSTAAKTETSSHKAHTEAQVINTFDGVADYLQTYHKLPDNYITKSEAQALGWVASKGNLADVAPGKSIGGDIFSNREGKLPGKSGRTWREADINYTSGFRNSDRIGYSSDWLIYKTTDHYQTFTKIR [L136G], the “ddG of mutation (higher = less stable)” value was 7 kcal/mol, the unfolding free energy was 2.5 kcal/mol and the Tm was 43.5 °C. The “change of melting temperature, mutant” value was -8.7 °C and the “unfolding enthalpy (van 't Hoff)” value was 58.5 kcal/mol.

For MMKMEGIALKKRLSWISVCLLVLVSAAGMLFSTAAKTETSSHKAHTEAQVINTFDGVADYLQTYHKLPDNYITKSEAQALGWVASKGNLADVAPGKSIGGDIFSNREGKLPGKSGRTWREADINYTSGFRNSDRILYSSDWGIYKTTDHYQTFTKIR [L142G], the “ddG of mutation (higher = less stable)” value was 4.7 kcal/mol, the unfolding free energy was 4.8 kcal/mol and the Tm was 43.1 °C. For the same variant, the “change of melting temperature, mutant” value was -9.1 °C and the “unfolding enthalpy (van 't Hoff)” value was 98.5 kcal/mol.

With MMKMEGIALKKRLSWISVCLLVLVSAAGMLFSTAAKTETSSHKAHTEAQVINTFDGVADYLQTYHKLPDNYITKSEAQALGWVASKGNLADVAPGKSIGGDIFSNREGKLPGKSGRTWREADINYTSGFRNSDRILYSSDWLIGKTTDHYQTFTKIR [Y144G] the “ddG of mutation (higher = less stable)” value was 6.6 kcal/mol, the unfolding free energy was 2.9 kcal/mol and the Tm was 34.4 °C. For the same variant, the “change of melting temperature, mutant” value was -17.9 °C and the “unfolding enthalpy (van 't Hoff)” value was 103 kcal/mol.

In the case of MMKMEGIALKKRLSWISVCLLVLVSAAGMLFSTAAKTETSSHKAHTEAQVINTFDGVADYLQTYHKLPDNYITKSEAQALGWVASKGNLADVAPGKSIGGDIFSNREGKLPGKSGRTWREADINYTSGFRNSDRILYSSDWLIYKTGDHYQTFTKIR [T147G], the “ddG of mutation (higher = less stable)” value is reported as 2.8 kcal/mol and the unfolding free energy is reported as 6.7 kcal/mol.

In the case of MMKMEGIALKKRLSWISVCLLVLVSAAGMLFSTAAKTETSSHKAHTEAQVINTFDGVADYLQTGHKLPDNYITKSEAQALGWVASKGNLADVAPGKSIGGDIFSNREGKLPGKSGRTWREADINYTSGFRNSDRILYSSDWLIYKTTDHYQTFTKIR [Y64G], the Tm is reported as 42 °C, the “change of melting temperature, mutant” value is reported as -10.3 °C and the “unfolding enthalpy (van 't Hoff)” value is reported as 117 kcal/mol.

For MMKMEGIALKKRLSWISVCLLVLVSAAGMLFSTAAKTETSSHKAHTEAQVINTFDGVADYLQTYHKLPDNYITKSEAQALGWVASKGNLADVAPGKSIGGDIFSNREGKLPGKSGRTWRGADINYTSGFRNSDRILYSSDWLIYKTTDHYQTFTKIR [E120G], the Tm was 39.5 °C, the “change of melting temperature, mutant” value was -12.7 °C and the “unfolding enthalpy (van 't Hoff)” value was 101 kcal/mol.

With MMKMEGIALKKRLSWISVCLLVLVSAAGMLFSTAAKTETSSHKAHTEAQVINTFDGVADYLQTYHKLPDNYITKSEAQALGWVASKGNLADVAPGKSIGGDIFSNREGKLPGKSGRTWREADINYTSGFRNSDRILYSSDWLGYKTTDHYQTFTKIR [I143G] the Tm was 36.5 °C, the “change of melting temperature, mutant” value was -15.7 °C and the “unfolding enthalpy (van 't Hoff)” value was 110 kcal/mol.
